Results reported in patent publication US20240035010, “COMPOSITIONS COMPRISING A VARIANT POLYPEPTIDE AND USES THEREOF” (Arbor Biotechnologies, Inc., published 2024).
Changes are numbered by the printed parent chain.

Tests used:
Test in all cases: cell_activity; PAM 5'-ATTG-3'
Settings in all cases: tags: pcDNA3.1 expression
[1] = target: T1, variant nuclease T338G combination (P14R, D32R, I61R, E311R, T338G)
T1 chain: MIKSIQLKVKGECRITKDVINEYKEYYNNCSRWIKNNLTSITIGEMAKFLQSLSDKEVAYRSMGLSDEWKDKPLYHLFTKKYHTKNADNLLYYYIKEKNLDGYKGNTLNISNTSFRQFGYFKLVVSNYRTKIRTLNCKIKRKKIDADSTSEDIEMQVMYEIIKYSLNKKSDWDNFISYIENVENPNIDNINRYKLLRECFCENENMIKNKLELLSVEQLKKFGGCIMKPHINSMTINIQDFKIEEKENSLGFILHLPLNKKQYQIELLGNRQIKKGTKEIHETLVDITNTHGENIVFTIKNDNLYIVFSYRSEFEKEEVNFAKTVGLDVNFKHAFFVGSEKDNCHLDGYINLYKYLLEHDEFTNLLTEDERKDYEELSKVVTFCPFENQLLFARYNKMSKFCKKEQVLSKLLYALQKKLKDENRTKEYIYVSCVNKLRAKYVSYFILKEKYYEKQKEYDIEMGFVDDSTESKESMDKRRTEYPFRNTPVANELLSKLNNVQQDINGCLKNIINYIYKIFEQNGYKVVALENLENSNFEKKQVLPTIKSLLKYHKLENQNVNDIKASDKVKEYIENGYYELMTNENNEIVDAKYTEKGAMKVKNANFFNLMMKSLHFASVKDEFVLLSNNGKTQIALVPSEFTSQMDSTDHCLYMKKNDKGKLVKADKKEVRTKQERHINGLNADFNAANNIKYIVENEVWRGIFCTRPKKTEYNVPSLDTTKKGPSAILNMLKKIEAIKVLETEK

[2] = target: T2, variant nuclease E736G combination (P14R, D32R, I61R, E311R, E736G)
T2 chain: T1 chain with G338T, E736G

[3] = target: T3, variant nuclease K35G combination (P14R, D32R, I61R, E311R, K35G)
T3 chain: T1 chain with K35G, G338T

B1: EMX1 crRNA ; EMX1 target (ssRNA ; dsDNA)
RNA: CUUGUUGUAUAUGUCCUUUUAUAGGUAUUAAACAACCCGCCGCUUCCUGAGCCAUC
DNA 1: CCGCCGCTTCCTGAGCCATC
DNA 2: GATGGCTCAGGAAGCGGCGG
- indel editing activity [1]: 7.58 fold of WT
- indel editing activity [2]: 10.1 fold of WT
- indel editing activity [3]: 6.93 fold of WT
